# Experiments:
# p34^cdc2-cyclin B1 = biological target: T1, p34^cdc2-cyclin B1 (Homo sapiens, UniProt P06493); test: In vitro kinase assay with p34cdc2-cyclin B1; assay type: biochemical; conditions: recombinant protein as substrate, 32P-ATP, 30 min at 30° C., autoradiography
# T1 construct: host or cells: baculovirus expression system
# Method: FIG. 1B. In vitro kinase assay. Wild type (WT) survivin, survivin(T34A) (T34A), or control (H1) were incubated with baculovirus-expressed p34^cdc2-cyclin B1 or cdk2-cyclin E in kinase buffer plus 10 μCi γ-^32P-ATP for 30 min at 30° C. Samples were separated by SDS gel electrophoresis and radioactive bands were visualized by autoradiography. Equal protein loading was confirmed by Coomassie blue staining of the gel.
# (§1) Transfection experiments. For transient transfection, HeLa cells in C-6 tissue culture plates (Costar, Cambridge, Mass.) at ˜60-70% confluency, were incubated in 1 ml of serum-free OptiMEM medium (Life Technologies, Gaithersburg, Md.) for 20 min, and transfected with 2.5 μg of the various plasmid cDNAs plus 9 μl Lipofectamine (Life Technologies). After a 5 h incubation at 37° C., the mixture was aspirated and substituted with complete growth medium for 48-72 h. To generate stable YUSAC-2 transfectants, a survivin(T34A) cDNA was inserted into the HindIII-SpeI sites of the pTet-splice vector (Dr. D. Schatz, Yale University School of Medicine), downstream of the regulatory sequences of the Tet-resistance operon (TetO). […] Gated GFP-expressing cells were analyzed for DNA content by flow cytometry on a FACSort (Becton Dickinson, San Jose, Calif.) using a Cell Quest software. […]
# p34^cdc2 = biological target: T2, p34^cdc2 (Homo sapiens, UniProt P06493); test: Co-immunoprecipitation of survivin and p34cdc2 from HeLa cells; assay type: binding; conditions: asynchronously growing transfected HeLa cells
# T2 construct: immunoprecipitated with an antibody to HA, and immunoblotted with antibodies to p34^cdc2 or HA; endogenous in cells; host or cells: HeLa
# T2 sequence (P06493 whole entry): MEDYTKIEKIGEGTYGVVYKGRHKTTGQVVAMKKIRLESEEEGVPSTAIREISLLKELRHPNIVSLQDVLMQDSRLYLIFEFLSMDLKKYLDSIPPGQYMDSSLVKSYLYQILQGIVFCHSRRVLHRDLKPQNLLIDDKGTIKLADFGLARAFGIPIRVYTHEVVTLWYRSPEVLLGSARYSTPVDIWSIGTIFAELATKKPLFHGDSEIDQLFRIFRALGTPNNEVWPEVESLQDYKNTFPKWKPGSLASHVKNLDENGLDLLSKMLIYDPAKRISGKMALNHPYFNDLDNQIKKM
# Method: The experimental procedures are the same as in A, except that asynchronously growing HeLa cells were transfected with HA-survivin or HA-survivin(T34A), immunoprecipitated with an antibody to HA, and immunoblotted with antibodies to p34^cdc2 or HA. W, whole HeLa cell extract.
# as §1, with “(TetO). YUSAC-2 cells were transfected with 0.8 μg pTet-T34A, 0.8 μg of the transactivation/selection plasmid ptTA-Neo and 5 μl Lipofectamine in 1 ml of OptiMem.” for “(TetO).”
# T1 sequence (P06493 whole entry): as above
# T1 sequence (P14635 whole entry partner): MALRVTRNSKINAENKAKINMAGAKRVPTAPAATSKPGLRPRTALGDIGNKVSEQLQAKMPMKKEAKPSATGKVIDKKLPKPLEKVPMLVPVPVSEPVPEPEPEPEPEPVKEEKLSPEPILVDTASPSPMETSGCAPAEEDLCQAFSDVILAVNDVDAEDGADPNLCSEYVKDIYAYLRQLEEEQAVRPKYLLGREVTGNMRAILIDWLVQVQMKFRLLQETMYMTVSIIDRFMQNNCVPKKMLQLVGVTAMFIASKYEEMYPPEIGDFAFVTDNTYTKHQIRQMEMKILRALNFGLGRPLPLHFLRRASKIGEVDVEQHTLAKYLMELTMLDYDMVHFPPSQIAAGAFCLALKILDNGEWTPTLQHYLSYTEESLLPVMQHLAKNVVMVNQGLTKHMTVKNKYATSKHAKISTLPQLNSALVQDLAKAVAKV
substance,measurement,setting,value
"survivin(T34A): dominant-negative, non-phosphorylatable survivin mutant with Thr34→Ala substitution, expressed from transfected cDNA (also HA- or GFP-tagged)",phosphorylation by p34^cdc2-cyclin B1,p34^cdc2-cyclin B1,abolished phosphorylation
same,p34^cdc2 in HA immunoprecipitates by Western blotting,p34^cdc2,contained a prominent p34^cdc2 band
